According to patent US20090285799A1:

How the values were obtained:
[1] = molecular target: T1, hIL-13Rα1.ECR (N-terminal FLAG-tagged fusion protein of the extracellular region of human IL-13Rα1) (human) (UniProt P78552); experiment: ELISA on plate-bound hIL-13Rα1.ECR
T1 sequence: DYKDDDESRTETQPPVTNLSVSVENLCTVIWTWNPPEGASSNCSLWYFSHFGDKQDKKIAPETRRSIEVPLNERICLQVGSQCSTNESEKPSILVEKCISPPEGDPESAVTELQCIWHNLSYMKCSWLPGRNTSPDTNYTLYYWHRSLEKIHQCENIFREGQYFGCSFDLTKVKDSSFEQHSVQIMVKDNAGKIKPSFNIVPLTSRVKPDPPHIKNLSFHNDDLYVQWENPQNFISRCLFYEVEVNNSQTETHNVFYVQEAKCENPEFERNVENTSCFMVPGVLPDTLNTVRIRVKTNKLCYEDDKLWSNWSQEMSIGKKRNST

[2] = molecular target: T1, hIL-13Rα1.ECR (N-terminal FLAG-tagged fusion protein of the extracellular region of human IL-13Rα1) (human); experiment: BIACORE SPR, hIL-13Rα1.ECR immobilized on CM5 chip, antibody as analyte, bivalent model
[3] = molecular target: T2, human IL-13Rα1 on normal human dermal fibroblast (NHDF) cells (human) (UniProt P78552); experiment: cell-based or functional assay
T2 sequence: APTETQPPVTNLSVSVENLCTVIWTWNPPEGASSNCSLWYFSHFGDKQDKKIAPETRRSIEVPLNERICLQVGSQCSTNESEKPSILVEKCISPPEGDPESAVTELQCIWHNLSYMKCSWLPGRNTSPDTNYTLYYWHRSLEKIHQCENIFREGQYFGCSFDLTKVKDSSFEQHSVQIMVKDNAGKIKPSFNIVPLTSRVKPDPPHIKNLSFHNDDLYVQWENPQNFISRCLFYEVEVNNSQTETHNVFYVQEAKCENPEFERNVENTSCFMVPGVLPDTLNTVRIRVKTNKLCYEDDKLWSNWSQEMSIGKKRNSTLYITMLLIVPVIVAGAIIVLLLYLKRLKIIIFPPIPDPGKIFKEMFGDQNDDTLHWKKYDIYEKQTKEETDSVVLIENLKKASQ

B1: 4A10 (antibody, part only; not given: light chain, V domains shown, part only)
VH: QVQLVESGGGVVQPGRSLRLSCAASGFTFSNYGMHWVRQAPGKGLEWVAAIWYDGSDKNYADSVKGRVTISRDTSKKTLYLQMNSLRAEDTAIYYCAREITIMRGLIKNYYYYGMDVWGQGTTVTVSS
[1]
  Kd: 1.2 nM
[2]
  Kd: 5.8 nM
[3]
  NHDF cells IL-13 Eotaxin release (IC50) [on average]: 0.35 µg/mL
